The target of assay [1] is M2(4) (derivative of M2 containing the C-terminal linker of DEBS module 4; plasmid pST179) (UniProt Q03133). In words: fit of the rate of tetraketide formation against (5)M3+TE concentration (0.5-5 µM) at fixed 0.5 µM M2(4); kinetic saturation curve.
Assay [2] concerns the target M2 (module 2 of DEBS with the natural C-terminal linker for module 2; plasmid pBP19) (UniProt Q03133). In words: fit of the rate of tetraketide formation against M3+TE concentration (0.4-4 µM) at fixed 1.0 µM M2; kinetic saturation curve.
Assay [3] concerns the target (5)M5+TE (M5+TE; plasmid pRSG46) (UniProt Q03133). In words: cell-based or functional assay.

This passage reports Kd and maximal rate increase in the elongation of 4a versus 2a results from patent US7001748.

For “(5)M3+TE (derivative of M3+TE where the natural N-terminal linker has been replaced with the N-terminal linker of module 5 of DEBS; plasmid pST132) (from UniProt Q03133 2-41; Q03132 33-1467; Q03133 2960-3166) (enzyme)”, the Kd in assay [1] was found to be 2100 nM.
In assay [2], “M3+TE (module 3 of DEBS with its own N-terminal linker and with the thioesterase fused to the C-terminus; plasmid pRSG34) (from UniProt Q03132 33-1467; Q03133 2960-3166) (enzyme)” gave a Kd of 1100 nM.
“acyl-ACP4(4) adduct 4a ((2S,3R)-diketide on ACP4(4)) (from UniProt Q03132 3398-3567)” gave a maximal rate increase in the elongation of 4a versus 2a in assay [3] of over 40 fold.
